Assays:
LARP6C La-module [1] = target: T1, LARP6C La-module (Arabidopsis thaliana, UniProt Q9LHL3 137-332); assay: ITC
T1 sequence: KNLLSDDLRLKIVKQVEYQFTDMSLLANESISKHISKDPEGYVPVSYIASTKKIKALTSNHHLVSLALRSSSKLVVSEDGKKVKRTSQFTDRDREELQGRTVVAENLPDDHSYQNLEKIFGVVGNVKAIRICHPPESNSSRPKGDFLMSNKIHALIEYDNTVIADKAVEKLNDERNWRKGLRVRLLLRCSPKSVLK

LARP6C La-module [2] = target: T1, LARP6C La-module; assay: EMSA
LARP6C La-module [3] = target: T1, LARP6C La-module; assay: EMSA; remark: listed apart in the source
LARP6C La-module [4] = target: T1, LARP6C La-module; assay: EMSA; remark: listed apart in the source

Q: Does CCUCUCCCCCCCUCCCCCCUC (ssRNA) [B3] bind (LARP6C La-module [1])?
A: Result: no binding

Q: Does UUUUUUUUUUUUUUUUUUUU (ssRNA) [oligo(U20)] bind (LARP6C La-module [2])?
A: Result: binds

Q: Which results are given for CUUCUUUCUUUCUUUUUUGUU (ssRNA) [B1]?
A: Kd (LARP6C La-module [1]): 2.8 µM; Kd (LARP6C La-module [3]): 0.8 ± 0.1 µM; Kd (LARP6C La-module [4]): 3.5 ± 0.3 µM

Q: Does AAAAAAGAAGAAAAA (ssRNA) [A1] bind (LARP6C La-module [1])?
A: Result: no binding

Q: With UCUCUCUGUUUCUUAUUCAUC (ssRNA) [B2] as the binder, how does the Kd (LARP6C La-module [1]) read?
A: The Kd was 3.7 µM.

Q: What about the Kd (LARP6C La-module [3]) of the same binder?
A: The Kd was 1.9 ± 0.3 µM.

Q: What about the Kd (LARP6C La-module [4]) of the same binder?
A: The Kd was 5.6 ± 0.2 µM.

Q: Does GAGAGAGGAGAAGAA (ssRNA) [A2] bind (LARP6C La-module [1])?
A: Result: no binding

From publication doi:10.1101/2020.11.27.401307
